Results published in patent publication US20160017348A1 (University of California, published 2016).

T1: H3K9me3 peptide (UniProt P59226 2-16, trimethyl-lysine at K9)
T1 peptide (looked up): ARTKQTARKSTGGKA

T2: H3(1-15)K9me2 peptide (UniProt P59226 2-16, dimethyl-lysine at K9)
T2 construct: range 2-16; Residues 1-15 are stated for the peptide in the crystal structure; also called H3K9me2 peptide; H3K9me2
T2 peptide (looked up): ARTKQTARKSTGGKA

T3: H3K9me1 peptide (UniProt P59226 2-16, monomethyl-lysine at K9)
T3 peptide (looked up): ARTKQTARKSTGGKA


How the values were obtained:
NRPE1-Flag (Pol V) = molecular target: T4, NRPE1-Flag (Pol V) (Arabidopsis thaliana, UniProt Q5D869 1-1976); assay: immunoprecipitation and mass spectrometry
T4 construct: Bait for the purification of the Pol V complex; also called Flag-tagged Pol V; not shown: Flag tag

H3K9me3 peptide = molecular target: T1, H3K9me3 peptide; assay: ITC; reference is the unmodified H3 peptide
H3(1-15)K9me2 peptide = molecular target: T2, H3(1-15)K9me2 peptide; assay: ITC; reference is the unmodified H3 peptide
H3K9me1 peptide = molecular target: T3, H3K9me1 peptide; assay: ITC; reference is the unmodified H3 peptide

T4 sequence (Q5D869 whole entry): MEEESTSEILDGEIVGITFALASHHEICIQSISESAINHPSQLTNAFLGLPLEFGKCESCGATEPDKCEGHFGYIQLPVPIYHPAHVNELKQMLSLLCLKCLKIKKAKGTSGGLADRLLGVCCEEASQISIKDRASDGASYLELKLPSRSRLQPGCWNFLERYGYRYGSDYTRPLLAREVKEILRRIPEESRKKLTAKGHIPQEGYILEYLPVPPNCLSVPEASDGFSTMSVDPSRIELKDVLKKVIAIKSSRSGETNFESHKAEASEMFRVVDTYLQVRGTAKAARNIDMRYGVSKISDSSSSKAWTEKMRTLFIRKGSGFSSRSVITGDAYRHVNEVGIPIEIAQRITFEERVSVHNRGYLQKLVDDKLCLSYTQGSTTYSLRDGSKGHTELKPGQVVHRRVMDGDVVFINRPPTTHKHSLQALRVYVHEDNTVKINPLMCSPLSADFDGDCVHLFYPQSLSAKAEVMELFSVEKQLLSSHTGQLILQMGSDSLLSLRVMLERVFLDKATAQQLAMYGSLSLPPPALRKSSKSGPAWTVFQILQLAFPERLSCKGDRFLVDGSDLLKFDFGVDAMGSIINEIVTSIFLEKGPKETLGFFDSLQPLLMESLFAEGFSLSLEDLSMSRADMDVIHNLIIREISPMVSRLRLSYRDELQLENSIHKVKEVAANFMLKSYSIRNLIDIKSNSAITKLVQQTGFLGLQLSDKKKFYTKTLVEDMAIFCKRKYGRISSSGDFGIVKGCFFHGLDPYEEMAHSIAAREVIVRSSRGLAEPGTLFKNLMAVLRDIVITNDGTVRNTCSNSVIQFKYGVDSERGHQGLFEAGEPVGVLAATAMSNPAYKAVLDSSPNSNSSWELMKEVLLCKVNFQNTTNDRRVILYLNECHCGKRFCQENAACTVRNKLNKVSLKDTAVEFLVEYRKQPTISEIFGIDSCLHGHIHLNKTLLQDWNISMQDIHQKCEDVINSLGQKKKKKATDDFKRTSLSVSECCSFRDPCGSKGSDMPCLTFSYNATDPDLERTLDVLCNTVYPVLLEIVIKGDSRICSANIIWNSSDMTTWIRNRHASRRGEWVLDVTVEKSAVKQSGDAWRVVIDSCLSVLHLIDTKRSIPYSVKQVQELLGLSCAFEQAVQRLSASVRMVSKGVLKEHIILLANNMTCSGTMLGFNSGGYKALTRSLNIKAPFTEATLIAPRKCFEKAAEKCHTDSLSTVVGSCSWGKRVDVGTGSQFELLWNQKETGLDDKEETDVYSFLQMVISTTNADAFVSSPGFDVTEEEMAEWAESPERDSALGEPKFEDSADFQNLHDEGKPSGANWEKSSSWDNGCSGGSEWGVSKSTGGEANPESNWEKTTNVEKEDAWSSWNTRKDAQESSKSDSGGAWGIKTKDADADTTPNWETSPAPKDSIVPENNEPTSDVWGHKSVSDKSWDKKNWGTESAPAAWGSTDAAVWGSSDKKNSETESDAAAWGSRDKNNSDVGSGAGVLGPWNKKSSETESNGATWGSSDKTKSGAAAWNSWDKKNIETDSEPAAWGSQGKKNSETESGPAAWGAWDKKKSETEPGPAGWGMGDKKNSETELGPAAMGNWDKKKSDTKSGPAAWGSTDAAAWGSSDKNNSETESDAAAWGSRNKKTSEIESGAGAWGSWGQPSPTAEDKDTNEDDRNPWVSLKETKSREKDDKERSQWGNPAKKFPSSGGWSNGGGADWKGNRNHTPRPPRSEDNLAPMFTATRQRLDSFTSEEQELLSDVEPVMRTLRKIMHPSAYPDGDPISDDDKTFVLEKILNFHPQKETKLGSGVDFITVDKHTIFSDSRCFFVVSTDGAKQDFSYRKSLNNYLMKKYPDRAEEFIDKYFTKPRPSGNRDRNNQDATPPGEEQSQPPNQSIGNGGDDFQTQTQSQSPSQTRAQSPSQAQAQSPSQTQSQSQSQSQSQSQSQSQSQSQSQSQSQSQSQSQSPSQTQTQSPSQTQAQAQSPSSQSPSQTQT

| binding result (NRPE1-Flag (Pol V)) | fold higher affinity than with unmodified H3 peptides (H3K9me3 peptide) [fold] | fold higher affinity than with unmodified H3 peptides (H3(1-15)K9me2 peptide) [fold] | fold higher affinity than with unmodified H3 peptides (H3K9me1 peptide) [fold] | Binder |
| --- | --- | --- | --- | --- |
| no binding |  |  |  | SUVH9 (other, Endogenous protein searched for by mass spectrometry in Pol V purifications; also called SUVH2/9 peptides) MGSSHIPLDPSLNPSPSLIPKLEPVTESTQNLAFQLPNTNPQALISSAVSDFNEATDFSSDYNTVAESARSAFAQRLQRHDDVAVLDSLTGAIVPVEENPEPEPNPYSTSDSSPSVATQRPRPQPRSSELVRITDVGPESERQFREHVRKTRMIYDSLRMFLMMEEAKRNGVGGRRARADGKAGKAGSMMRDCMLWMNRDKRIVGSIPGVQVGDIFFFRFELCVMGLHGHPQSGIDFLTGSLSSNGEPIATSVIVSGGYEDDDDQGDVIMYTGQGGQDRLGRQAEHQRLEGGNLAMERSMYYGIEVRVIRGLKYENEVSSRVYVYDGLFRIVDSWFDVGKSGFGVFKYRLERIEGQAEMGSSVLKFARTLKTNPLSVRPRGYINFDISNGKENVPVYLFNDIDSDQEPLYYEYLAQTSFPPGLFVQQSGNASGCDCVNGCGSGCLCEAKNSGEIAYDYNGTLIRQKPLIHECGSACQCPPSCRNRVTQKGLRNRLEVFRSLETGWGVRSLDVLHAGAFICEYAGVALTREQANILTMNGDTLVYPARFSSARWEDWGDLSQVLADFERPSYPDIPPVDFAMDVSKMRNVACYISHSTDPNVIVQFVLHDHNSLMFPRVMLFAAENIPPMTELSLDYGVVDDWNAKLAICN |
| no binding |  |  |  | SUVH2 (other, Endogenous protein, detected or searched for by mass spectrometry in immunoprecipitates; also called SUVH2 peptides) MSTLLPFPDLNLMPDSQSSTAGTTAGDTVVTGKLEVKSEPIEEWQTPPSSTSDQSANTDLIAEFIRISELFRSAFKPLQVKGLDGVSVYGLDSGAIVAVPEKENRELIEPPPGFKDNRVSTVVVSPKFERPRELARIAILGHEQRKELRQVMKRTRMTYESLRIHLMAESMKNHVLGQGRRRRSDMAAAYIMRDRGLWLNYDKHIVGPVTGVEVGDIFFYRMELCVLGLHGQTQAGIDCLTAERSATGEPIATSIVVSGGYEDDEDTGDVLVYTGHGGQDHQHKQCDNQRLVGGNLGMERSMHYGIEVRVIRGIKYENSISSKVYVYDGLYKIVDWWFAVGKSGFGVFKFRLVRIEGQPMMGSAVMRFAQTLRNKPSMVRPTGYVSFDLSNKKENVPVFLYNDVDGDQEPRHYEYIAKAVFPPGIFGQGGISRTGCECKLSCTDDCLCARKNGGEFAYDDNGHLLKGKHVVFECGEFCTCGPSCKSRVTQKGLRNRLEVFRSKETGWGVRTLDLIEAGAFICEYAGVVVTRLQAEILSMNGDVMVYPGRFTDQWRNWGDLSQVYPDFVRPNYPSLPPLDFSMDVSRMRNVACYISHSKEPNVMVQFVLHDHNHLMFPRVMLFALENISPLAELSLDYGLADEVNGKLAICN |
|  | ~17 | ~17 | ~17 | SHH1 SAWADEE domain (residues 125-258) (other) ADLAFEAKSARDYAWYDVSSFLTYRVLRTGELEVRVRFSGFDNRHDEWVNVKTSVRERSIPVEPSECGRVNVGDLLLCFQEREDQALYCDGHVLNIKRGIHDHARCNCVFLVRYELDNTEESLGLERICRRPEE |
